Measurements: publication doi:10.1101/498196 (bioRxiv, 2018)

How the values were obtained:
[1] = target: the molecule itself; experiment: bead aggregation assay
[2] = target: the molecule itself; experiment: AUC
[3] = target: the molecule itself; experiment: crystal structure

B1: PCDH1 EC1-7Fc (Fc fusion)
chain: TRVVYKVPEEQPPNTLIGSLAADYGFPDVGHLYKLEVGAPYLRVDGKTGDIFTTETSIDREGLRECQNQLPGDPCILEFEVSITDLVQNGSPRLLEGQIEVQDINDNTPNFASPVITLAIPENTNIGSLFPIPLASDRDAGPNGVASYELQAGPEAQELFGLQVAEDQEEKQPQLIVMGNLDRERWDSYDLTIKVQDGGSPPRASSALLRVTVLDTNDNAPKFERPSYEAELSENSPIGHSVIQVKANDSDQGANAEIEYTFHQAPEVVRRLLRLDRNTGLITVQGPVDREDLSTLRFSVLAKDRGTNPKSARAQVVVTVKDMNDNAPTIEIRGIGLVTHQDGMANISEDVAEETAVALVQVSDRDEGENAAVTCVVAGDVPFQLRQASETGSDSKKKYFLQTTTPLDYEKVKDYTIEIVAVDSGNPPLSSTNSLKVQVVDVNDNAPVFTQSVTEVAFPENNKPGEVIAEITASDADSGSNAELVYSLEPEPAAKGLFTISPETGEIQVKTSLDREQRESYELKVVAADRGSPSLQGTATVLVNVLDCNDNDPKFMLSGYNFSVMENMPALSPVGMVTVIDGDKGENAQVQLSVEQDNGDFVIQNGTGTILSSLSFDREQQSTYTFQLKAVDGGVPPRSAYVGVTINVLDENDNAPYITAPSNTSHKLLTPQTRLGETVSQVAAEDFDSGVNAELIYSIAGGNPYGLFQIGSHSGAITLEKEIERRHHGLHRLVVKVSDRGKPPRYGTALVHLYVNETLANRTLLETLLGHSLDTPLDIDIAGDPEYERSKQRGN
Question: Does B1 bind [1]?
Answer: binds

B2: PCDH1 EC1-7Fc C375S C548S (Fc fusion)
chain: TRVVYKVPEEQPPNTLIGSLAADYGFPDVGHLYKLEVGAPYLRVDGKTGDIFTTETSIDREGLRECQNQLPGDPCILEFEVSITDLVQNGSPRLLEGQIEVQDINDNTPNFASPVITLAIPENTNIGSLFPIPLASDRDAGPNGVASYELQAGPEAQELFGLQVAEDQEEKQPQLIVMGNLDRERWDSYDLTIKVQDGGSPPRASSALLRVTVLDTNDNAPKFERPSYEAELSENSPIGHSVIQVKANDSDQGANAEIEYTFHQAPEVVRRLLRLDRNTGLITVQGPVDREDLSTLRFSVLAKDRGTNPKSARAQVVVTVKDMNDNAPTIEIRGIGLVTHQDGMANISEDVAEETAVALVQVSDRDEGENAAVTSVVAGDVPFQLRQASETGSDSKKKYFLQTTTPLDYEKVKDYTIEIVAVDSGNPPLSSTNSLKVQVVDVNDNAPVFTQSVTEVAFPENNKPGEVIAEITASDADSGSNAELVYSLEPEPAAKGLFTISPETGEIQVKTSLDREQRESYELKVVAADRGSPSLQGTATVLVNVLDSNDNDPKFMLSGYNFSVMENMPALSPVGMVTVIDGDKGENAQVQLSVEQDNGDFVIQNGTGTILSSLSFDREQQSTYTFQLKAVDGGVPPRSAYVGVTINVLDENDNAPYITAPSNTSHKLLTPQTRLGETVSQVAAEDFDSGVNAELIYSIAGGNPYGLFQIGSHSGAITLEKEIERRHHGLHRLVVKVSDRGKPPRYGTALVHLYVNETLANRTLLETLLGHSLDTPLDIDIAGDPEYERSKQRGN
Question: Does B2 bind [1]?
Answer: binds

B3: PCDH1 EC1-7Fc V115R (Fc fusion)
chain: TRVVYKVPEEQPPNTLIGSLAADYGFPDVGHLYKLEVGAPYLRVDGKTGDIFTTETSIDREGLRECQNQLPGDPCILEFEVSITDLVQNGSPRLLEGQIEVQDINDNTPNFASPRITLAIPENTNIGSLFPIPLASDRDAGPNGVASYELQAGPEAQELFGLQVAEDQEEKQPQLIVMGNLDRERWDSYDLTIKVQDGGSPPRASSALLRVTVLDTNDNAPKFERPSYEAELSENSPIGHSVIQVKANDSDQGANAEIEYTFHQAPEVVRRLLRLDRNTGLITVQGPVDREDLSTLRFSVLAKDRGTNPKSARAQVVVTVKDMNDNAPTIEIRGIGLVTHQDGMANISEDVAEETAVALVQVSDRDEGENAAVTCVVAGDVPFQLRQASETGSDSKKKYFLQTTTPLDYEKVKDYTIEIVAVDSGNPPLSSTNSLKVQVVDVNDNAPVFTQSVTEVAFPENNKPGEVIAEITASDADSGSNAELVYSLEPEPAAKGLFTISPETGEIQVKTSLDREQRESYELKVVAADRGSPSLQGTATVLVNVLDCNDNDPKFMLSGYNFSVMENMPALSPVGMVTVIDGDKGENAQVQLSVEQDNGDFVIQNGTGTILSSLSFDREQQSTYTFQLKAVDGGVPPRSAYVGVTINVLDENDNAPYITAPSNTSHKLLTPQTRLGETVSQVAAEDFDSGVNAELIYSIAGGNPYGLFQIGSHSGAITLEKEIERRHHGLHRLVVKVSDRGKPPRYGTALVHLYVNETLANRTLLETLLGHSLDTPLDIDIAGDPEYERSKQRGN
Question: Does B3 bind [1]?
Answer: binds

B4: PCDH1 EC1-5 C375S C548S (domain or fragment)
chain: TRVVYKVPEEQPPNTLIGSLAADYGFPDVGHLYKLEVGAPYLRVDGKTGDIFTTETSIDREGLRECQNQLPGDPCILEFEVSITDLVQNGSPRLLEGQIEVQDINDNTPNFASPVITLAIPENTNIGSLFPIPLASDRDAGPNGVASYELQAGPEAQELFGLQVAEDQEEKQPQLIVMGNLDRERWDSYDLTIKVQDGGSPPRASSALLRVTVLDTNDNAPKFERPSYEAELSENSPIGHSVIQVKANDSDQGANAEIEYTFHQAPEVVRRLLRLDRNTGLITVQGPVDREDLSTLRFSVLAKDRGTNPKSARAQVVVTVKDMNDNAPTIEIRGIGLVTHQDGMANISEDVAEETAVALVQVSDRDEGENAAVTSVVAGDVPFQLRQASETGSDSKKKYFLQTTTPLDYEKVKDYTIEIVAVDSGNPPLSSTNSLKVQVVDVNDNAPVFTQSVTEVAFPENNKPGEVIAEITASDADSGSNAELVYSLEPEPAAKGLFTISPETGEIQVKTSLDREQRESYELKVVAADRGSPSLQGTATVLVNVLDSNDND
Question: B4 was tested. Which Kd [2] did it give?
Answer: < 5 µM

Question: And the “stoichiometry N” value [2]?
Answer: 2

B5: PCDH1 EC1-5 C375S C548S V115R (domain or fragment)
chain: TRVVYKVPEEQPPNTLIGSLAADYGFPDVGHLYKLEVGAPYLRVDGKTGDIFTTETSIDREGLRECQNQLPGDPCILEFEVSITDLVQNGSPRLLEGQIEVQDINDNTPNFASPRITLAIPENTNIGSLFPIPLASDRDAGPNGVASYELQAGPEAQELFGLQVAEDQEEKQPQLIVMGNLDRERWDSYDLTIKVQDGGSPPRASSALLRVTVLDTNDNAPKFERPSYEAELSENSPIGHSVIQVKANDSDQGANAEIEYTFHQAPEVVRRLLRLDRNTGLITVQGPVDREDLSTLRFSVLAKDRGTNPKSARAQVVVTVKDMNDNAPTIEIRGIGLVTHQDGMANISEDVAEETAVALVQVSDRDEGENAAVTSVVAGDVPFQLRQASETGSDSKKKYFLQTTTPLDYEKVKDYTIEIVAVDSGNPPLSSTNSLKVQVVDVNDNAPVFTQSVTEVAFPENNKPGEVIAEITASDADSGSNAELVYSLEPEPAAKGLFTISPETGEIQVKTSLDREQRESYELKVVAADRGSPSLQGTATVLVNVLDSNDND
Question: For B5, which “stoichiometry N” value [2] is on record?
Answer: 2

B6: hs PCDH1 EC1-4bc (domain or fragment)
chain: TRVVYKVPEEQPPNTLIGSLAADYGFPDVGHLYKLEVGAPYLRVDGKTGDIFTTETSIDREGLRECQNQLPGDPCILEFEVSITDLVQNGSPRLLEGQIEVQDINDNTPNFASPVITLAIPENTNIGSLFPIPLASDRDAGPNGVASYELQAGPEAQELFGLQVAEDQEEKQPQLIVMGNLDRERWDSYDLTIKVQDGGSPPRASSALLRVTVLDTNDNAPKFERPSYEAELSENSPIGHSVIQVKANDSDQGANAEIEYTFHQAPEVVRRLLRLDRNTGLITVQGPVDREDLSTLRFSVLAKDRGTNPKSARAQVVVTVKDMNDNAPTIEIRGIGLVTHQDGMANISEDVAEETAVALVQVSDRDEGENAAVTCVVAGDVPFQLRQASETGSDSKKKYFLQTTTPLDYEKVKDYTIEIVAVDSGNPPLSSTNSLKVQVVDVNDNA
Question: Does B6 bind [3]?
Answer: binds

B7: PCDH1 EC1-4 C375S (domain or fragment)
chain: TRVVYKVPEEQPPNTLIGSLAADYGFPDVGHLYKLEVGAPYLRVDGKTGDIFTTETSIDREGLRECQNQLPGDPCILEFEVSITDLVQNGSPRLLEGQIEVQDINDNTPNFASPVITLAIPENTNIGSLFPIPLASDRDAGPNGVASYELQAGPEAQELFGLQVAEDQEEKQPQLIVMGNLDRERWDSYDLTIKVQDGGSPPRASSALLRVTVLDTNDNAPKFERPSYEAELSENSPIGHSVIQVKANDSDQGANAEIEYTFHQAPEVVRRLLRLDRNTGLITVQGPVDREDLSTLRFSVLAKDRGTNPKSARAQVVVTVKDMNDNAPTIEIRGIGLVTHQDGMANISEDVAEETAVALVQVSDRDEGENAAVTSVVAGDVPFQLRQASETGSDSKKKYFLQTTTPLDYEKVKDYTIEIVAVDSGNPPLSSTNSLKVQVVDVNDNA
Question: For B7, which Kd [2] is on record?
Answer: < 5 µM

Question: What about the “stoichiometry N” value [2] of the same protein?
Answer: 2

B8: hs PCDH1 EC1-4mc (domain or fragment)
chain: TRVVYKVPEEQPPNTLIGSLAADYGFPDVGHLYKLEVGAPYLRVDGKTGDIFTTETSIDREGLRECQNQLPGDPCILEFEVSITDLVQNGSPRLLEGQIEVQDINDNTPNFASPVITLAIPENTNIGSLFPIPLASDRDAGPNGVASYELQAGPEAQELFGLQVAEDQEEKQPQLIVMGNLDRERWDSYDLTIKVQDGGSPPRASSALLRVTVLDTNDNAPKFERPSYEAELSENSPIGHSVIQVKANDSDQGANAEIEYTFHQAPEVVRRLLRLDRNTGLITVQGPVDREDLSTLRFSVLAKDRGTNPKSARAQVVVTVKDMNDNAPTIEIRGIGLVTHQDGMANISEDVAEETAVALVQVSDRDEGENAAVTCVVAGDVPFQLRQASETGSDSKKKYFLQTTTPLDYEKVKDYTIEIVAVDSGNPPLSSTNSLKVQVVDVNDNA
modifications: sugars observed at N248 (N-linked) and S430 (O-linked)
Question: Does B8 bind [3]?
Answer: binds

B9: PCDH1 EC1-4Fc (Fc fusion)
chain: TRVVYKVPEEQPPNTLIGSLAADYGFPDVGHLYKLEVGAPYLRVDGKTGDIFTTETSIDREGLRECQNQLPGDPCILEFEVSITDLVQNGSPRLLEGQIEVQDINDNTPNFASPVITLAIPENTNIGSLFPIPLASDRDAGPNGVASYELQAGPEAQELFGLQVAEDQEEKQPQLIVMGNLDRERWDSYDLTIKVQDGGSPPRASSALLRVTVLDTNDNAPKFERPSYEAELSENSPIGHSVIQVKANDSDQGANAEIEYTFHQAPEVVRRLLRLDRNTGLITVQGPVDREDLSTLRFSVLAKDRGTNPKSARAQVVVTVKDMNDNAPTIEIRGIGLVTHQDGMANISEDVAEETAVALVQVSDRDEGENAAVTCVVAGDVPFQLRQASETGSDSKKKYFLQTTTPLDYEKVKDYTIEIVAVDSGNPPLSSTNSLKVQVVDVNDNA
Question: Does B9 bind [1]?
Answer: binds
